# Like-named read-outs stand apart in the source and are kept apart here.
# Columns and labels:
# [1] = biological target: ^FSClpX (TAMRA-labelled single-chain E. coli ^C169SClpX^ΔN pseudohexamer) (E. coli); assay: other fluorescence titration
# [2] = biological target: ^FSClpX (TAMRA-labelled single-chain E. coli ^C169SClpX^ΔN pseudohexamer) (E. coli); assay: other fluorescence titration; remark: listed apart in the source
# [3] = biological target: ^FSClpXP (^FSClpX with ClpP) (E. coli) (UniProt P0A6G7); assay: other fluorescence titration
# [4] = biological target: ^FSClpXP (^FSClpX with ClpP) (E. coli) (UniProt P0A6G7); assay: stopped-flow fluorescence quenching
# [5] = biological target: ^FSClpXP (^FSClpX with ClpP) (E. coli) (UniProt P0A6G7); assay: stopped-flow fluorescence quenching; remark: listed apart in the source
# [6] = biological target: ^FSClpXP (^FSClpX with ClpP) (E. coli) (UniProt P0A6G7); assay: other fluorescence titration; remark: listed apart in the source
# Sequence of UniProt P0A6G7 (P0A6G7 whole entry, looked up): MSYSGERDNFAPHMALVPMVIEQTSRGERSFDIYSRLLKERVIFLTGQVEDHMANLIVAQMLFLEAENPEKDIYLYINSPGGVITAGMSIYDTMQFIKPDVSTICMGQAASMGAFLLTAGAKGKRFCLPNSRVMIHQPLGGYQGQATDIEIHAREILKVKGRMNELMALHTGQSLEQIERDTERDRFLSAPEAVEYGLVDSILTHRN
Substance,Kd [1] [nM],Kd [2] [nM],Kd [3] [nM],"time constant of dissociation, fast phase [4] [s]","time constant of dissociation, slow phase [4] [s]","time constant of dissociation, fast phase [5] [s]","time constant of dissociation, slow phase [5] [s]",Kd [6] [nM]
^UFtitin-BQ-ssrA (titin-BQ-ssrA unfolded by carboxymethylation of otherwise-buried cysteines) (domain or fragment),90,550,,,,,,
titin-BQ-ssrA (ssrA-tagged I27 domain of human titin labelled with the BHQ-10 quencher) (domain or fragment),59,110,30 to 100,3,50,2,240,60
